This note sets out measurements from the RNAGym collection of RNA variant scans (doi:10.7554/elife.80360).

Sequences and labels used below:
B1: CPEB3 Ribozyme (parent)
chain: GGGGGCCACAGCAGAAGCGUUCACGUCGCGGCCCCUGUCAGAUUCUGGUGAAUCUGCGAAUUCUGCUGU

Variants of B1 are the subject of this data set. The data set is described as follows: self-cleavage, relative activity (ratio to wild type); higher = more cleavage; co-transcriptional.
For the variant GGGGGCCAAAGCAGAAGCGUUCACGUCGCGGCCCCUAUCAGAUUCUGGUGAAUCUGCGAAUUCUGCUGU, the self-cleavage stood at 0.397.
For GGGGGCCAAAGCAGAAGCGUUCACGUCGCGGCCCCUCUCAGAUUCUGGUGAAUCUGCGAAUUCUGCUGU, the self-cleavage was 0.242.
Take GGGGGCCAAAGCAGAAGCGUUCACGUCGCGGCCCCUGUCAGAUUCUGGUGAAUCUGCGAAUACUGCUGU: the self-cleavage was 1.01.
With GGGGGCCAAAGCAGAAGCGUUCACGUCGCGGCCCCCGUCAGAUUCUGGUGAAUCUGCGAAUUCUGCUGU, the self-cleavage worked out at 0.968.
Regarding GGGGGCCAAAGCAGAAGCGUUCACGUCGCGGCCCCGGUCAGAUUCUGGUGAAUCUGCGAAUUCUGCUGU, the self-cleavage worked out at 0.244.
For the variant GGGGGCCAAAGCAGAAUCGUUCACGUCGCGGCCCCUGUCAGAUUCUGGUGAAUCUGCGAAUUCUGCUGU, the self-cleavage is 0.622.
With GGGGGCCAAAGCAGAAACGUUCACGUCGCGGCCCCUGUCAGAUUCUGGUGAAUCUGCGAAUUCUGCUGU, the self-cleavage was 0.707.
Take GGGGGCCAAAGCAGAAGCGUUCACGUCGCGGCCCCUGUCAGAUUCUGCUGAAUCUGCGAAUUCUGCUGU: the self-cleavage is 1.02.
Take GGGGGCCAAAGCAGAAGCGUUCACGUCGCGGCCCCUGUCAGAUUCUGUUGAAUCUGCGAAUUCUGCUGU: the self-cleavage stood at 1.03.
Take GGGGGCCAGAGCAGAAGCGUUCACGUCGCGGCCCCUGUCAGAUUCUGGUGAAUCUGCGUAUUCUGCUGU: the self-cleavage came out at 0.936.
As to GGGGGCCAGAGCAGAAGCGUUCACGUCGCGGCCCCUGUCAGAUUCUGGUGAAUCUGCGGAUUCUGCUGU, the self-cleavage stood at 0.997.
With GGGGGCCAAAGCAGAAGCGUUCACGUCGCGGCCCCUGUCAGAUUCUGGUGAAUCUGCGAAUUCGGCUGU, the self-cleavage worked out at 0.951.
For GGGGGCCAAAGCAGAAGCGUUCACGUCGCGGCCCCUGUCAGAUUCUGGUGAAUCUGCGAAUUCAGCUGU the value was 0.94.
For the variant GGGGGCCAAAGCAGAAGCGUUCACGUCGCGGCCCCUGUCAGAUUCUGGUGAAUCUGCGAAUUCCGCUGU, the self-cleavage was 0.938.
GGGGGCCAGAGCAGAAGCGUUCACGUCGCGGCCCCUGUCGGAUUCUGGUGAAUCUGCGAAUUCUGCUGU: the self-cleavage was 0.968.
Consider GGGGGCCAAAGCAGAAGCGUUCACGUCGCGGCCCCUGUCAGAUUCUGGUGAAUCUACGAAUUCUGCUGU, for which the self-cleavage was 1.02.
On to GGGGGCCAAAGCAGAAGCGUCCACGUCGCGGCCCCUGUCAGAUUCUGGUGAAUCUGCGAAUUCUGCUGU, for which the self-cleavage was 0.985.
For GGGGGCCAAAGCAGAAGCGUGCACGUCGCGGCCCCUGUCAGAUUCUGGUGAAUCUGCGAAUUCUGCUGU the value was 0.774.
For GGGGGCCAGAGCAGAAGCGUUCACGUCGCGGCCCCUGUCAGAUUCUGGUGAAUCUGCGACUUCUGCUGU the value was 0.385; for GGGGGCCAGAGCAGAAGCGUUCACGUCGCGGCCCCUGUCAGAUUCUGGUGAAUCUGCGAUUUCUGCUGU, 0.486; for GGGGGCCAAAGCAGAAGCGUUCACGUCGCGGCCCCUGUCAGAUUCUGGUGAAUCUGCGAAUUCUGCCGU, 1.
On to GGGGGCCAAAGCAGAAGCGUUCACGUCGCGGCCCCUGUCAGAUUCUGGUGAAUCUGCGAAUUCUGCGGU, for which the self-cleavage was determined as 1.05.
For GGGGGCCAAAGCAGAAGCGUUCACGUCGCGGCCCCUGUCACAUUCUGGUGAAUCUGCGAAUUCUGCUGU, the self-cleavage was found to be 0.906.
With GGGGGCCAAAGCAGAAGCGUUCACGUCGCGGCCCCUGUCAAAUUCUGGUGAAUCUGCGAAUUCUGCUGU, the self-cleavage is 0.988.
With GGGGGCCAAAGCAGAAGCGUUCACGUCUCGGCCCCUGUCAGAUUCUGGUGAAUCUGCGAAUUCUGCUGU, the self-cleavage worked out at 0.187.
For GGGGGCCAAAGCAGAAGCGUUCACGUCCCGGCCCCUGUCAGAUUCUGGUGAAUCUGCGAAUUCUGCUGU the value was 0.196; for GGGGGCCAGAGCAGAUGCGUUCACGUCGCGGCCCCUGUCAGAUUCUGGUGAAUCUGCGAAUUCUGCUGU, 0.887; for GGGGGCCAGAGCAGAGGCGUUCACGUCGCGGCCCCUGUCAGAUUCUGGUGAAUCUGCGAAUUCUGCUGU, 0.957.
In the case of GGGGGCCAAAGCAGAAGCGUUCACGUCGCGGCCCCUGUCAGAUUCUUGUGAAUCUGCGAAUUCUGCUGU, the self-cleavage came out at 1.05.
For GGGGGCCAAAGCAGAAGCGUUCACGUCGCGGCCCCUGUCAGAUUCUAGUGAAUCUGCGAAUUCUGCUGU the value was 1.03; for GGGGGCCAAAGCAGAAGCGUUCACGUCGCGGCCCCUGUCAGAUUCUGGUGAAUCUGCGAAUUCUGCUUU, 1.04.
Consider GGGGGCCAAAGCAGAAGCGUUCACGUCGCGGCCCCUGUCAGAUUCUGGUGAAUCUGCGAAUUCUGCUCU, for which the self-cleavage was 1.05.
Turning to GGGGGCCAAAGCAGAAGCGUUCACGUCGCGGCCCCUGUCAGAUUCUGGUGAAUCUGCGAAUUCUGCUAU, the self-cleavage came to 1.04.
As for GGGGGCCAAAGCAGAAGCGUUCACGUCGCGGCCCCUGUCAGAUUCUGGUGAAUCUGCGAAUUCUCCUGU, the self-cleavage came to 0.627.
For GGGGGCCAAAGCAGAAGCGUUCACGUCGCGGCCCCUGUCAGAUUCUGGUGAACCUGCGAAUUCUGCUGU, the self-cleavage worked out at 0.997.
In the case of GGGGGCCAAAGCAGAAGCGUUCACGUCGCGGCCCCUGUCAGAUUCUGGUGAAACUGCGAAUUCUGCUGU, the self-cleavage is 1.03.
Turning to GGGGGCCAAAGCAGAAGCGUUCACGUCGCGGCCCCUGUCAGAUUCUGGUGAAUCUGCGAAUUCUGCUGC, the self-cleavage amounted to 1.08.
Take GGGGGCCAAAGCAGAAGCGUUCACGUCGCGGCCCCUGUCAGAUUCUGGUGAAUCUGCGAAUUCUGCUGG: the self-cleavage is 1.07.
Turning to GGGGGCCAAAGCAGAAGCGUUCACGUCGCGGCCCCUGUCAGAGUCUGGUGAAUCUGCGAAUUCUGCUGU, the self-cleavage is 0.876.
In the case of GGGGGCCAAAGCAGAAGCGUUCACGUCGCGGCCCCUGUCAGAAUCUGGUGAAUCUGCGAAUUCUGCUGU, the self-cleavage is 0.967.
GGGGGCCAGAGCGGAAGCGUUCACGUCGCGGCCCCUGUCAGAUUCUGGUGAAUCUGCGAAUUCUGCUGU: the self-cleavage was found to be 0.922.
For GGGGGCCAGAGCCGAAGCGUUCACGUCGCGGCCCCUGUCAGAUUCUGGUGAAUCUGCGAAUUCUGCUGU the value was 0.845.
For GGGGGCCAAAGCAGAAGCGUUCACGUCGCGGCCCCUGUCAGAUUCUGGCGAAUCUGCGAAUUCUGCUGU the value was 0.989; for GGGGGCCAAAGCAGAAGCGUUCACGUCGCGGCCCCUGUCAGAUUCUGGUGAAUCUGCAAAUUCUGCUGU, 1.02; for GGGGGCCAGAGCAGAAGCGUUCACGUCGCGGCCCCUGUCAGCUUCUGGUGAAUCUGCGAAUUCUGCUGU, 1.03.
For the variant GGGGGCCAGAGCAGAAGCGUUCACGUCGCGGCCCCUGUCAGUUUCUGGUGAAUCUGCGAAUUCUGCUGU, the self-cleavage amounted to 1.01.
GGGGGCCAGAGCAGAAGCGUUCACGUCGCGGCCCCUGUCAGGUUCUGGUGAAUCUGCGAAUUCUGCUGU: the self-cleavage was 0.949.
For the variant GGGGGCCAAAGCAGAAGCGUUCACGUCGCUGCCCCUGUCAGAUUCUGGUGAAUCUGCGAAUUCUGCUGU, the self-cleavage was 0.846.
On to GGGGGCCAAAGCAGAAGCGUUCACGUCGCCGCCCCUGUCAGAUUCUGGUGAAUCUGCGAAUUCUGCUGU, for which the self-cleavage was 0.953.
For GGGGGCCAAAGCAGAAGCGUUCACGUCGCAGCCCCUGUCAGAUUCUGGUGAAUCUGCGAAUUCUGCUGU the value was 1.01; for GGGGGCCAAAGCAGAAGCGUUCACGUCGCGGCCCCUGUCAGAUUCAGGUGAAUCUGCGAAUUCUGCUGU, 1.02; for GGGGGCCAAAGCAGAAGCGUUCACGUCGCGGCCCCUGUCAGAUUCCGGUGAAUCUGCGAAUUCUGCUGU, 0.996.
For the variant GGGGGCCAGAGCAGAAGCGUUCACGUCGCGGCCCCUGUCAGAUUCUGGUGAGUCUGCGAAUUCUGCUGU, the self-cleavage worked out at 1.05.
Consider GGGGGCCAGUGCAGAAGCGUUCACGUCGCGGCCCCUGUCAGAUUCUGGUGAAUCUGCGAAUUCUGCUGU, for which the self-cleavage is 0.987.
GGGGGCCAGCGCAGAAGCGUUCACGUCGCGGCCCCUGUCAGAUUCUGGUGAAUCUGCGAAUUCUGCUGU: the self-cleavage turned out to be 0.634.
Turning to GGGGGCCAGGGCAGAAGCGUUCACGUCGCGGCCCCUGUCAGAUUCUGGUGAAUCUGCGAAUUCUGCUGU, the self-cleavage was 1.
Turning to GGGGGCCAAAGCAGAAGCGUUCACGCCGCGGCCCCUGUCAGAUUCUGGUGAAUCUGCGAAUUCUGCUGU, the self-cleavage was 0.983.
As to GGGGGCCAAAGCAGAAGCGUUCACGACGCGGCCCCUGUCAGAUUCUGGUGAAUCUGCGAAUUCUGCUGU, the self-cleavage came to 0.946.
With GGGGGCCAGAGCAGAAGCGUUCGCGUCGCGGCCCCUGUCAGAUUCUGGUGAAUCUGCGAAUUCUGCUGU, the self-cleavage was 0.976.
As for GGGGGCCAGAGCAGAAGCGUUCUCGUCGCGGCCCCUGUCAGAUUCUGGUGAAUCUGCGAAUUCUGCUGU, the self-cleavage was determined as 0.978.
Turning to GGGGGCCAGAGAAGAAGCGUUCACGUCGCGGCCCCUGUCAGAUUCUGGUGAAUCUGCGAAUUCUGCUGU, the self-cleavage was found to be 0.789.
With GGGGGCCAGAGCAGCAGCGUUCACGUCGCGGCCCCUGUCAGAUUCUGGUGAAUCUGCGAAUUCUGCUGU, the self-cleavage was determined as 0.819.
For GGGGGCCAAAGCAGAAGCGUUCACGUCGCGGCCCCUGCCAGAUUCUGGUGAAUCUGCGAAUUCUGCUGU the value was 1.03; for GGGGGCCAAAGCAGAAGCGUUCACGUCGCGGCCCCUGUCAGAUUCUGGUGAAUCAGCGAAUUCUGCUGU, 0.981; for GGGGGCCAAAGCAGAAGCCUUCACGUCGCGGCCCCUGUCAGAUUCUGGUGAAUCUGCGAAUUCUGCUGU, 0.111.
For GGGGGCCAAAGCAGAAGCAUUCACGUCGCGGCCCCUGUCAGAUUCUGGUGAAUCUGCGAAUUCUGCUGU, the self-cleavage is 0.129.
Regarding GGGGGCCAAAGCAGAAGCUUUCACGUCGCGGCCCCUGUCAGAUUCUGGUGAAUCUGCGAAUUCUGCUGU, the self-cleavage is 0.609.
As for GGGGGCCAAAGCAGAAGCGUUCACGUCGCGGCCCCUGUCAGAUACUGGUGAAUCUGCGAAUUCUGCUGU, the self-cleavage is 0.998.
For GGGGGCCAAAGCAGAAGCGUUCACGUCGCGGCCCCUGUCAGAUCCUGGUGAAUCUGCGAAUUCUGCUGU, the self-cleavage amounted to 1.02.
Consider GGGGGCCAAAGCAGAAGCGUUCACGUCGCGGCCCCUGUCAGAUUCUGGUGAAUCUGCGAAAUCUGCUGU, for which the self-cleavage came to 0.988.
As to GGGGGCCAAAGCAGAAGCGUUCACGUCGCGGCCCCUGUCAGAUUCUGGUGAAUCUGCGAAGUCUGCUGU, the self-cleavage came to 0.86.
Take GGGGGCCAAAGCAGAAGCGUUCACGUCGCGGCCCCUGUCAGAUUCUGGUGAAUCUGCGAACUCUGCUGU: the self-cleavage worked out at 0.863.
Consider GGGGGCCAAAGCAGAAGCGAUCACGUCGCGGCCCCUGUCAGAUUCUGGUGAAUCUGCGAAUUCUGCUGU, for which the self-cleavage is 0.0654.
Take GGGGGCCAAAGCAGAAGCGGUCACGUCGCGGCCCCUGUCAGAUUCUGGUGAAUCUGCGAAUUCUGCUGU: the self-cleavage stood at 0.19.
For GGGGGCCAGAGCAGAAGCGUUCACGUCGCGGCCCCUGUCAGAUUCUGGUGGAUCUGCGAAUUCUGCUGU, the self-cleavage worked out at 0.993.
Turning to GGGGGCCAGAGCAGAAGCGUUCACGUCGCGGCCCCUGUCAGAUUCUGGUGUAUCUGCGAAUUCUGCUGU, the self-cleavage was 0.976.
GGGGGCCAAAGCAGAAGCGUUCACAUCGCGGCCCCUGUCAGAUUCUGGUGAAUCUGCGAAUUCUGCUGU: the self-cleavage stood at 0.264.
As for GGGGGCCAAAGCAGAAGCGUUCACUUCGCGGCCCCUGUCAGAUUCUGGUGAAUCUGCGAAUUCUGCUGU, the self-cleavage is 0.181.
